Consider 1 molecule from patent publication US20220227882A1 (TRUSTEES OF TUFTS COLLEGE, published 2022).

In assay [1] the target is T1, G445A (Homo sapiens, UniProt P78325).
T1 construct: expressed on HEK293 cells; also called human ADAM8 point mutant G445A
T1 sequence (ADAM8, looked up): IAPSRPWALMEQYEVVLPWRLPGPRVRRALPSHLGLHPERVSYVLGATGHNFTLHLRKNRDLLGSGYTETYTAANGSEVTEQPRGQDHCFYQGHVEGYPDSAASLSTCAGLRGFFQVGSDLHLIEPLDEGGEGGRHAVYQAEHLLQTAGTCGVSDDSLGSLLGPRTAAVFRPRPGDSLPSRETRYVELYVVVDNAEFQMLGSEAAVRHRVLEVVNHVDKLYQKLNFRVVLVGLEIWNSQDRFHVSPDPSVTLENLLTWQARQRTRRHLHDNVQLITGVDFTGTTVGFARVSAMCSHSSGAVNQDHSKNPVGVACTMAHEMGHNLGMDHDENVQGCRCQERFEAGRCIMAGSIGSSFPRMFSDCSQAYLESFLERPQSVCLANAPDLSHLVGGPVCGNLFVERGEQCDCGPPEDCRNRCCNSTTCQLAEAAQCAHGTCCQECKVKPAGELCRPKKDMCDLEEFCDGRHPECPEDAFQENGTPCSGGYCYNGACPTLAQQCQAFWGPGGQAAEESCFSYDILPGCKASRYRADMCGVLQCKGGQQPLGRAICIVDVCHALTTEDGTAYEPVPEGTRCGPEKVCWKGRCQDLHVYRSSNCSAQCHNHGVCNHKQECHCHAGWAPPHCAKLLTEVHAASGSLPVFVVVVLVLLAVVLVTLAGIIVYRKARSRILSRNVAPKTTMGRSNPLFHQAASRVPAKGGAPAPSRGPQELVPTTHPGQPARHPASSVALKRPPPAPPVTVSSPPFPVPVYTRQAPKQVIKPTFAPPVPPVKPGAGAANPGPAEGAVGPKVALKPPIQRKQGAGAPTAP
As to the kind of experiment: high-throughput flow cytometry, HEK293 cells with mutant ADAM8, high stringency; range in parentheses; closed box. As to the method:
(§1) A variety of experimental parameters were optimized for high-throughput flow cytometry including blocking buffer, and primary and secondary antibody concentrations, to identify the optimal conditions for screening. Through these studies ADP2 and ADP13 were determined to be high affinity binding antibodies.
(§2) Thus, for these studies antigen-binding fragments (Fabs) of ADP2 and ADP13, which bind with lower affinity than the full antibody, were generated. In addition, higher binding stringency conditions were tested, such as increased pH, salinity, and temperature, and/or increased washing, to weaken binding sufficiently to allow identification of critical binding residues in flow cytometry. The final experimental flow cytometry conditions were: primary antibody incubation with ADP2 Fab (0.50 μg/ml), ADP13 Fab (5.00 μg/ml) and Control Ab (0.16 μg/ml) for 60 minutes in flow cytometry buffer containing 10% goat serum in PBS (Ca²⁺ and Mg²⁺ free). […] Samples were washed three times after primary antibody incubation and twice after secondary antibody incubation with PBS (Ca²⁺ and Mg′ free). Next, HEK293 cells expressing WT or mutated ADAM8 proteins or EV DNA were incubated with ADP2 or ADP13 Fabs or Control Ab at their optimal concentrations. Fab binding was detected using Alexa Fluor 488-conjugated secondary antibodies and mean cellular fluorescence determined using the Intellicyt iQue flow cytometry platform. […] This counter-screen strategy facilitates the exclusion of mutants that are locally misfolded or that have an expression defect. Binding of each test Fab to each mutant clone in the alanine scanning library was determined, in duplicate, by high-throughput flow cytometry.
A general note: Flow cytometry measures light scatter and fluorescence of single cells or particles in a stream.

Assay [2] deals with T2, K458A (Homo sapiens, UniProt P78325).
T2 construct: expressed on HEK293 cells; also called human ADAM8 point mutant K458A
T2 sequence (ADAM8, looked up): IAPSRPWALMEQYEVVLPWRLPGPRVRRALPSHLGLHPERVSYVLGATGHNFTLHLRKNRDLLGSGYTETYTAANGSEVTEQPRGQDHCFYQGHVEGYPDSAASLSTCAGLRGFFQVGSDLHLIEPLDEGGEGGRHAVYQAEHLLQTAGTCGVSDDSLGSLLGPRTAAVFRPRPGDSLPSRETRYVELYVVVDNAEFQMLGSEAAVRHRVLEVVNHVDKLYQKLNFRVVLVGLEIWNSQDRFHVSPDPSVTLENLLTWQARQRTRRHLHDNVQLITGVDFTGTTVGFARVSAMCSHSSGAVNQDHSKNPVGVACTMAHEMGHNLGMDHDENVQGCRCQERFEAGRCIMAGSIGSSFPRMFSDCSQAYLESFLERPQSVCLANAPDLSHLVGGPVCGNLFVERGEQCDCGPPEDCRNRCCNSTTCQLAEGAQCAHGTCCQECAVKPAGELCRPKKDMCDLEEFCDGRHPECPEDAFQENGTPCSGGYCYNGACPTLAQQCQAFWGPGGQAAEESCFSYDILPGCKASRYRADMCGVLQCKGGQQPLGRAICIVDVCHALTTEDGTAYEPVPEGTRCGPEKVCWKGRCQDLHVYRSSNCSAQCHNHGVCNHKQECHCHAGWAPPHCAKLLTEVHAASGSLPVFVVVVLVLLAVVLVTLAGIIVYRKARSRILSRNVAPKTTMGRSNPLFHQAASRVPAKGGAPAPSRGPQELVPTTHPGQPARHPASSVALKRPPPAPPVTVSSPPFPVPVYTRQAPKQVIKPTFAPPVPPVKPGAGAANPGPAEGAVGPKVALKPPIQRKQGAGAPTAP
Described as above. As to the method:
as §1, §2

B1: ADP13 Fab (Fab, V domains shown)
VH: EVQLQQSGPEMVKPGTSVKISCKASGYTFTDYYINWVKQSHGKSLEWIGDISPNIGGATYNPKFKGKAILTVDKSARTAYMELRSLTSEDSAVYCCTRGGSSYPYFYAMDYWGQGTSVTVSS
VL: DIVMSQSPSSLAVSVGEKVTMSCKSSQSLLYSSNQKKYLAWYQQKPGQSPKLLIYWASTRESGVPDRFTGSGSGTDFTLTISSVKAEDLAVYYCQQFYSYPYTFGGGTKLEINR
B1: the “Binding Reactivity (% WT)” value in assay [1] was found to be 9.7 % WT; in assay [2] it was 13.5 % WT.
